From the DeepSol protein solubility set

test: soluble on expression in E. coli; label from the status in PepcDB or PDB records

Sequence	soluble on expression in E. coli
MSNTESTPVFDVCLSEKSFPHAQDKAILVHVFLSQTKDIDNLTEFQTLAESAGVELLSTLTTSRNAPHIKYFVGQGKAEEIAQAVENLGATVVLINHQLSPAQTRNLQNLCGCRIVDRSGLILDIFAQRARSHEGKLQVELAQLRHLSTRLVRRLGNQDQQKGGSVGLRGPGETQLETDRRLIKVRIQQLQNQLDKVNKKRHQNRKTRQKADIPTVSLVGYTNAGKSTLFNAITQAGVYAADQLFATLDPTLRRMQIQDVGTTILADTVGFIRFLPHDLVSAFKSTLQETTEANLLLHVVDIADERKNDNITAVNQVLDEIGALTLPSLLIYNKVDKITDITPHIERNQEGKPIAVYLSAHTNQGIDLLYQAIRECLRNELVCQKILLPTTAGQIYAQIRNQNCIKQEHFNQFGDRLIDIEVNAVQWQKWLKQYPALIEYVAFAKWENELEHHHHHH	not soluble
MGSDKIHHHHHHMTSANIQMAVYCFDVINAQLNREKEPPVPKEIPNVKLPLFVTWKKGHQHDLRGCIGTFSDLRLGEGLNEYAKTSAFHDSRFKPISREEVPSLQCGVSLLINFEPIHNFRDWTIGRHGVRMNFDDGHRNRSAVFLPEVAQEQGWNHVETIDHLIRKSGYGGHINDALRSALRIVRFQSSKLVLDYKDYVNYKQSHGLPLPR	not soluble
MQIYLSTLTELDYDKSLNSIEESFDDNPETSWQARAKVKHLRKSPCYNFELEVIAKNENNDVVGHVLLIEVEINSDDKTYYGLAIASLSVHPELRGQKLGRGLVQAVEERAKAQEYSTVVVDHCFDYFEKLGYQNAAEHDIKLEFGDAPLLVKYLWDNLTDAPHGIVKFPEHFY	not soluble
MGSDKIHHHHHHMAYPPTGGDRKTNLTTILRKSSKNLMSKKSDSQFQNLFTSAKSSNWDERLGQIAYRFNREYQRETFELPTEVQAMPIFREWIGGSFSGRIASPFWEIAQPQKNQHCLDIGCGISFLIYPWRDWQAFFHGQEISNVARDTLNSRGPQLNSKLFKGVELGAAHQLNYSPEQFDLAIATGFSCYFPLEYWNAVLAEVKRVLKPGGHFVFDILNPEQPLAEDWAVLETYLGAEVFLEPVAGWEKAIKAAGAKIVTQKSGELFQMYKVRF	not soluble
MFVRLFYTLRKYGVPVTTRELIDLNRAVAEGLVFADQDEFYQLAKTILVKDERFFDKFDRAIKDYFEGIETFDLDELLKQVQKIPKEWLDLELLEKHLTPEQREALQKAGSLEELMKMLEERLREQHKKHQGGNRMIGTGGTSPFGAFGDHPEGVRIGGPGRKRSAVKVWEQRKYQNLDDDQILGTRQMQLALRRLRKFARQGAADELDVDNTIRETAKQGILNVQMVPERRNRIKVLMLFDVGGSMDSHIAQCEKLFSAAKTEFKTLEYFYFHNCLYDYVWKDNHRRQASRLETWDLFHKYGRDYRVIVVGDASMAPYELRSAGGSVEYMNDEAGEIWLRRLRQHFDKTAWLNPEEEGYWKYTQTIGLIQQLFENHMYPMSLKGIEDMTRYLS	not soluble
MECRLGCGACCIAPSITSFIPGMPNGKPAGVRCVQLNEENLCKLFGKAERPKVCHQFSACPDVCGSTSEQAIQTITELESMTLLEHHHHHH	not soluble
MEIEKENGSKRLAVLIDADNAQASVLGELLAEISKYGTLNIKRAYGDWTSSNLKSWKEHLHKYAIAPIQQFNYTSGKNATDSALIIDAMDLLHDAPLEGFCLVSSDSDFTRLATRIRESGLVVYGFGEKKTPEAFVAACDKFIYTEILRQEEQRRPESSWNDSWSKSESKALKSIIQPAIKATMKEDDWVPLASIGLYISKNHPAFDPRNYGYDKLGRLIETLDFVELKKIPFKDGSSNTHVMVRLRSLEHHHHHH	not soluble
MNNILNQIKKEVNMDLLNGLWPGFKRAAFALYDDEHVYVFHHPLFLKDNDEYRVLKWEEQFKGDTCILFKDYPTAIVNMNRYKDYASLLAIVVHELFHCYQYLNKESRFPNESLGFQYPIIEENIQLRNKERICLYDAVHCKSQAEKNNYIKQFIELREQRASVMGEAFITYEYMVESIEGPAWYVEMNAYNTVCKSDESDTLRKYSGLILDVYDANCNMRKSCYSSGMLLCLLLDEILPEWKISFFNSDKSLYAFLKQNINVDLSLNNEITISKETKQILHFVQNERDKEIKQFYGEEGYDLYIVGDIKLNSFNPMNVKLNGNKVLHKTFLSVSIHNKTYMINQPVLASFEEDFKNMTQVHIIMNEKPIETKNG	not soluble
QVQLQQSGPELVKPGALVKISCKASGYTFTNYDIHWVKQRPGQGLEWIGWIYPGDGSTKYNEKFKGKATLTADKSSSTAYMHLSSLTSEKSAVYFCAREWAYWGQGTLVTVSAAKTTAPSVYPLAPGCGDTTGSSVTLGCLVKGYFPEPVTLTWNSGSLSSGVHTFPAVLQSDLYTLSSSVTVTSSTWPSQSITCNVAHPASSTKVDKKIEPRGPTIKPC	soluble
MSLQEIIGASLVFLCNEKCEVLEDYGVVFDEKIVEIGDYQSLTLKYPHLKAQFFENSVLLPAFINAHTHFEFSNNKASFDYGSFSGWLGSVLNNGGAILENCQGAIQNAISTQLKSGVGSVGAISNHLIEVNLLKESPLNAVVFLEFLGSSYSLEKLKAFEAKFKELKDLEDKKLKAALAVHAPYSVQKDMALSVIQLAKDSQSLLSTHFLESLEELEWVENSKGWFENFYQHFLKESHFKSLYKGANDYIDMFKDTHTLFVHNQFASLEALKRIKSQVKNAFLITCPFSNRLLSGQALDLERTKEAGLSVSVATDGLSSNISLSLLDELRAFLLTHNMPLLELAKIALLGATRHGAKALALNNGEIEANKRADLSVFGFNEKFTKEQAILQFLLHAKEVECLFLGGKRVIEGHHHHHH	soluble
MSLQRKRIVRERVVYVLDYMREGNPLDKHKFHRDKPLIQAVGEDYFLLLELTPLSYNLDFLPEDKIELDSNSSVKVDAHISYEDLTSVSRDNLPKILYKIVFEKEKVFVEIFNKAEPLTLRLHALELLPNIGKKTLRIILEERKKKPFESFKDIESRIGVKDVASILVERIIKEMQGGEKYYLFVYPLIPDENKRLEQQFIYVGYIEKLKEGHHHHHH	soluble
MKTTLIKVIAASVTALFLSMQVYASGHTAHVDEAVKHAEEAVAHGKEGHTDQLLEHAKESLTHAKAASEAGGNTHVGHGIKHLEDAIKHGEEGHVGVATKHAQEAIEHLRASEHKSH	not soluble
MAHHHHHHMIYGKDGKYPVGEILEYNNYNLSGQSLVEKKEREKLSIDYYEDLRKAAECHRQVRKHMQAFIKPGKKMIDIAQETERKTKELILAEKLKCGWGFPTGCSLNHCAAHYTPNYGDETVLKYDDVCKLDFGVHVNGYIIDCAFTIAFNEKYDNLIKATQDGTNTGIKEAGIDARMCDIGEAIQEAIESYEIELNQKIYPIKAISNLRGHSINKYIIHGGKCVPIVRQKEKNEIMEEGELFAIETFASTGKGYVNHENECSHYMRNPEKQFVPIRLNSAKTLLKVINDNFDTLPFCNRWLDDLGQTRHFMALKTLIDLNIVEPYPPLCDIKNSFTSQMEHTILLRPTCKEVLSRGPDF	soluble
FEEHLKKKPLRERLLEIPELRTEGLRDCQVMAISNLEKSFKDYRPRALIQMATGSGKTYTAITFIYRLLKFADARKVLFLVDTKNLGEQAEQEFMAYVPNDDNRKFTELYNVQRLRSSYISSDSQVCISTIQRLYSILKGEDLDEKTEEENPAERGWQLKEPLPVVYNEKVPIEEFDFIVIDECHRSIY	not soluble
MGSDKIHHHHHHMIKALNIVTKTGTELQGALFKAAHATTVLIAITGVHGNFYSNPFYVNIGKTLMAAGIDFIYAQTRDAFNQVVSLNHLTGKKELVGSWSEQFDDANEDIAAYLSYAEENQYQHIILGGHSLGANKVIYYLANHADVNVTKFLLLSPANLKRLTDMVSLSERNIIQKQIAAGNSNQLLPFELFGWLPCTAKTADQWLNSGILDNVHSDLRADFSQIERIRLSGAMVIGTLDTFTYGDPIKYLKTINAHFLSHAENDLVFIQKTGHTYQNKDQKLANEILKLIKNWSLGGN	not soluble
MNASSRTKPAIDLNKVPPIDHHRTAVTFNCLIMKMTEMLNNFGNKMEDILEKAEQSLDTADRKLRLMESKLAGMSLEDKSTTATPSSAPEIDEIHESNPSSSQIVEETVEEKPEEHTTTVLIKDDPAYSKYFKMLKLGVLEAGVIQKMKSEGVDPSILKRGDEPSRPQAQTSRNYESSGESTASFSDSD	not soluble
MGSDKIHHHHHHMDIKLKDFEGPLDLLLHLVSKYQVDIYEVPITEVIEQYLAYIATLQAMRLEVAGEYMLMASQLMVIKSRRLLPKVVEQIDPEDDPEMDLLDQLEEYRKFKLLSEKLGEQHDERANYFSKPKLDLIYDDVQLAKDKTIIDIFLAFSKVMAEKQASLRQSHATIARDEYKIEDMMDFVRSRFETGPRLELRQLFQESQDVNEMITIFLATLELVKVHEIVLEQTETFGDIYLVRSEDESLS	not soluble
AIALPADGIVCFPGQTWEKVLSKVKKAVVFMDDRCSESLHWNGGAALLFEAGARNIKQFSSFEAGAQNEPKAVFVVSTVLKGRTADIIKDIISLSHFQYCVVFTTVPHSIHLLANNVNADLEGNPVFEQFEEKLCEWMGDMNYTAEVMHAPVVFAPLTEHLHLLPAFSNLFPLLDVDLESINEKRPEKKRFGSLMDMDVHSLPPGLQIQIKTLALTLNGLFEFISTREESFSVGPMSRLIATELANLPQAKNRRKTAPNKASVVFVDRTLDLTGAVGHHGDNLAEKILSVLPQLPGHVTDVQVDMLELTHLKPTTDTKGILAPGCLAQNQSATAKLLWETMLVAKQKEAVIEVRRQLVEAASKENLPIKMSLGRVTAEQLCSYVQLFRDSWGALESHSGVLQLGLAAAQALRHPALQRWDACLAFERLLLQALGDSDLAGVLKQLLPLIKSSESGTGSDLSMDDLLVLLVYVYSVAKEACSGGSEEEKQVEKVEQELIGALTLRLTRETTLSPLVQEVTGVSCPEELTMECAHSVLESMFGTLRGVARARDHLKNFSSVFTPGDGAHQDQHRYILILMIQDQHQ	soluble
MGSDKIHHHHHHMFLSELYRYPVKSGQAQSLKASPVGLLGLQGDRRWMVVEEENGRFLTQRAWPQLGQIDASDDDSGQLLLQAPGQAPLRVPVPPADDALRGVTIWRDTLRVPDAGDAAAAWLSELLGKAVRLVHCPEQRARYLPNGYGLNSDRAAFPDGFPLLLIGQGSLDELNRRIGRPMSMRRFRPNLVVQGAEPFAEDGWKRIRIGSLVFRVLKPSVRCIFTTIDPVTGERSADREPMATLKTFREKEGDVLFGQNLAVDGSGWLEVGMEVEILE	not soluble
MGSDKIHHHHHHMQILFFMKIIRDPIHGYIEVEDFVLQIISTEIFQRLRHITQTGLAYLVYPGMRHTRFEHSLGVMHLAKELTRYIKINSEQYTDLDFINEEYLKLVGLSGLLHDIGHLPFSHTFENALSLAKEVYGIDVEYYGKKTHVIFGNRVIDYYLGNYLDKLSKNYDVVNFVQRVISSTPRTKEESLASLIISSPLDADRGDYLLRDSYFAGVGYGNFDIERIKRSLIYVNGKLAVLKKAIPVVEQFLLARMYMYETIYFHSVVGLYNAVLSHAVVKLIQKNLIPNVAPENYLKLNDVVIMSKLNEAGREFFDAIVYRKGFKRYKKDLTGNCYETLEKKRKEINEIMRENNGLILYHDFYDVPYSEDEIFVYDDDELKPLSTESKIVSSLTIIKKGIVGYHESAEDKMKKIYEILQECPL	not soluble
MQARYRDWGIFKYWFRAVEKNAPWVHKIFIITDHQNPKFLNKHSSKIVFVNHEDFIPNEYLPTFNSDAIEIGIQNIPGLSEHFVFFNDDMFINKPVKPIDFFDGNIPKDSGVMGPQFPISNSITHITVNNMEIINKYFLKKKVLRKYFFKFFNWRYGKDNIRTATALPWQVFIGFYDMHIPISFLKSTFDNVWSEVGNLLSQNYQHRFRSQLDYSVWLMRYFQLASGNFFPRRTRFGKYYNLGEQTEEIINDIKTGKHALIVLNDQESINDYPYEKKLVNEVFERRYSRLEHHHHHH	soluble
